# Source: US8822645B2, “Prostaglandin E2 dual variable domain immunoglobulins and uses thereof” (AbbVie Inc., priority 2008, dated 2014)
# Legend:
# [1] = system: stable cell lines overexpressing a cell-surface antigen of interest or human tumor cell lines; assay: Flow cytometry (FACS) binding to cell surface antigen; assay type: cell-based; settings: IL-6R VD in N-terminal position; 2 μg/mL
# Description: Stable cell lines overexpressing cell-surface antigen of interest or human tumor cell lines were harvested from tissue culture flasks and resuspended in phosphate buffered saline (PBS) containing 5% fetal calf serum (PBS/FCS). Prior to staining, human tumor cells were incubated on ice with human IgG at 200 μg/ml in PBS/FCS. 1-5×10^5 cells were incubated with antibody or DVD-Ig (1-2 μg/mL) in PBS/FCS for 30-60 minutes on ice. […] After 30 minutes incubation on ice, cells were washed twice and resuspended in PBS/FCS. Fluorescence was measured using a Becton Dickinson FACSCalibur (Becton Dickinson, San Jose, Calif.).
# Stable cell lines overexpressing a cell-surface antigen of interest or human tumor cell lines were harvested from tissue culture flasks and resuspended in phosphate buffered saline (PBS) containing 5% fetal bovine serum (PBS/FBS). Prior to staining, human tumor cells were incubated on ice with (100 μl) human IgG at 5 μg/ml in PBS/FCS. 1-5×10^5 cells were incubated with antibody or DVD-Ig (2 μg/mL) in PBS/FBS for 30-60 minutes on ice. […] After 30 minutes incubation on ice, cells were washed twice and resuspended in PBS/FBS. Fluorescence was measured using a Becton Dickinson FACSCalibur (Becton Dickinson, San Jose, Calif.).
# The geometric mean is the n root of the multiplication product of n fluorescent signals (a1×a2×a3 . . . an). […]
# [2] = system: PGE2 / human EP4 receptor in HEK293 Gα16 cells; assay: EP4 bioassay (Ca++ flux, neutralization of PGE2); assay type: cell-based; settings: PGE2 VD in C-terminal position; EP4 bioassay, Ca++ flux; read-out: C-terminal VD PGE2 Neutralization EC50
# Method in brief: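 Ca++ flux (FLIPR) in HEK293 Gα16 cells stably expressing human EP4, loaded with Ca++-sensitive dye for 90 min. PGE2, alone or pre-incubated with anti-PGE2 antibody, DVD-Ig or isotype control, was added in FLIPR buffer (HBSS, 20 mM HEPES, 0.1% BSA, 2.5 mM probenecid). EC50 derived from PGE2 dose-response.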
# target antigen = assay: BIACORE affinity determination of parent antibodies and DVD-Ig constructs; assay type: binding; settings: antigen IL-6R, 25° C.
# Description: The BIACORE assay (Biacore, Inc, Piscataway, N.J.) determines the affinity of antibodies or DVD-Ig with kinetic measurements of on-rate and off-rate constants. […] All chemicals are obtained from Biacore® AB (Uppsala, Sweden) or otherwise from a different source as described in the text. For example, approximately 5000 RU of goat anti-mouse IgG, (Fcγ), fragment specific polyclonal antibody (Pierce Biotechnology Inc, Rockford, Ill.) diluted in 10 mM sodium acetate (pH 4.5) is directly immobilized across a CM5 research grade biosensor chip using a standard amine coupling kit according to manufacturer's instructions and procedures at 25 μg/ml. Unreacted moieties on the biosensor surface are blocked with ethanolamine. Modified carboxymethyl dextran surface in flowcell 2 and 4 is used as a reaction surface. Unmodified carboxymethyl dextran without goat anti-mouse IgG in flow cell 1 and 3 is used as the reference surface. For kinetic analysis, rate equations derived from the 1:1 Langmuir binding model are fitted simultaneously to association and dissociation phases of all eight injections (using global fit analysis) with the use of Biaevaluation 4.0.1 software. Purified antibodies or DVD-Ig are diluted in HEPES-buffered saline for capture across goat anti-mouse IgG specific reaction surfaces. Antibodies or DVD-Ig to be captured as a ligand (25 μg/ml) are injected over reaction matrices at a flow rate of 5 μl/min. The association and dissociation rate constants, kon (M^−1 s^−1) and koff (s^−1) are determined under a continuous flow rate of 25 μl/min. Rate constants are derived by making kinetic binding measurements at different antigen concentrations ranging from 10-200 nM. The equilibrium dissociation constant (M) of the reaction between antibodies or DVD-Igs and the target antigen is then calculated from the kinetic rate constants by the following formula: KD=koff/kon. Binding is recorded as a function of time and kinetic rate constants are calculated. In this assay, on-rates as fast as 10^6 M^−1 s^−1 and off-rates as slow as 10^−6 s^−1 can be measured.
# [3] = Size exclusion chromatography, percent monomer of parent antibodies and DVD-Ig constructs; assay type: physicochemical
# Description: Antibodies were diluted to 2.5 mg/mL with water and […] is analyzed on a Shimadzu HPLC system using a TSK gel G3000 SWXL column (Tosoh Bioscience, cat#k5539-05k). […] The HPLC system operating conditions are the following: […]
molecule,measurement,setting,value
DVD152: DVD-Ig construct listed in Table 4 (antibody) VH: EVQLQESGPGLVRPSQTLSLTCTVSGYSITSDHAWSWVRQPPGRGLEWIGYISYSGITTYNPSLKSRVTMLRDTSKNQFSLRLSSVTAADTAVYYCARSLARTTAMDYWGQGSLVTVSSASTKGPEVQLVQSGAEVKKPGASVKVSCKASGYTFTKYWLGWVRQAPGQGLEWMGDIYPGYDYTHYNEKFKDRVTLTTDTSTSTAYMELRSLRSDDTAVYYCARSDGSSTYWGQGTLVTVSS VL: DIQMTQSPSSLSASVGDRVTITCRASQDISSYLNWYQQKPGKAPKLLIYYTSRLHSGVPSRFSGSGSGTDFTFTISSLQPEDIATYYCQQGNTLPYTFGQGTKVEIKRTVAAPDVLMTQTPLSLPVTPGEPASISCTSSQNIVHSNGNTYLEWYLQKPGQSPQLLIYKVSNRFSGVPDRFSGSGSGTDFTLKISRVEAEDVGVYYCFQVSHVPYTFGGGTKVEIKR,FACS Geometric Mean N-terminal,[1],9.13
same,EC50,[2],0.025 nM
same,koff,target antigen; IL-6R binding by C-terminal domain,0.00015 s⁻¹
same,koff,target antigen; IL-6R binding by N-terminal domain,0.000115 s⁻¹
same,% Monomer (purity),[3],87.6%
